Data: US20240270859A1 (HK INNO N, published 2024)
Like-named read-outs stand apart in the source and are kept apart here.

T1: human OX40L protein (OX40L-his), Acro Biosystems Cat #OXL-H52Q8 (human, UniProt P23510 51-183)
T1 construct: This molecule is used there as well; also called hOX40L; OX40L antigen protein (OX40L-his)
T1 sequence: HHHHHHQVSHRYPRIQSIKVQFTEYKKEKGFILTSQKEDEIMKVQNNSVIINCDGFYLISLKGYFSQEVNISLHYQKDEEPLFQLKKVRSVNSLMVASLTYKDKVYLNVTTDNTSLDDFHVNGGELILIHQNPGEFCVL


Experiments:
[1] = target: T1, human OX40L protein (OX40L-his), Acro …; experiment: SPR (Biacore T200), antibody captured by anti-hFc on CM5 chip, antigen as analyte
Procedure: A surface plasmon resonance (SPR) analysis was performed by using Bicore T200, and a running buffer used was HBS-EP (10 mM HEPES, pH7.4, 150 mM NaCl, 3 mM EDTA, […] surfactant P20). A human antibody capture kit (anti-hFc antibody) was fixed onto a surface of CM5 chip through an amine coupling method. […] An analytical sample was prepared with high purity/high concentration so that the minimum dilution factor could be 100 or more, thereby minimizing a buffer effect.

[2] = target: T1, human OX40L protein (OX40L-his), Acro …; experiment: cell-based or functional assay
[3] = target: T1, human OX40L protein (OX40L-his), Acro …; experiment: cell-based or functional assay; remark: listed apart in the source
[4] = target: human TNFα (TNF-H5228 of Acro Biosystems) (human, UniProt P01375 77-233); experiment: cell-based or functional assay
Sequence of human TNFα (TNF-H5228 of Acro Biosystems) (P01375 77-233 limits assumed): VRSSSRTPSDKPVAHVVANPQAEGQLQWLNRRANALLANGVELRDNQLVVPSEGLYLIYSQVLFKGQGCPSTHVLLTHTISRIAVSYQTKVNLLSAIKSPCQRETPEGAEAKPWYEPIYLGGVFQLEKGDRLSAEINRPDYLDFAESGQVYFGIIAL

Binder | Kd [1] | IC50 (nM), OX40L blockade assay (luminescence of NFκB-luc2/OX40 Jurkat cells) [2] | IC50(µg/mL), OX40L blockade assay (luminescence of NFκB-luc2/OX40 Jurkat cells) [2] | koff [1] | kon [1] | IC50 (nM), OX40L blockade assay (luminescence of NFκB-luc2/OX40 Jurkat cells) [3] | IC50 (nM), TNFα blockade assay (luminescence of NFκB-RE HEK293 cells) [4]
reference anti-OX40L antibody O4L (VH and VL of oxelumab) (antibody, human IgG4 S228P, kappa, V domains shown) VH: EVQLLESGGGLVQPGGSLRLSCAASGFTFNSYAMSWVRQAPGKGLEWVSIISGSGGFTYYADSVKGRFTISRDNSRTTLYLQMNSLRAEDTAVYYCAKDRLVAPGTFDYWGQGALVTVSS VL: DIQMTQSPSSLSASVGDRVTITCRASQGISSWLAWYQQKPEKAPKSLIYAASSLQSGVPSRFSGSGSGTDFTLTISSLQPEDFATYYCQQYNSYPYTFGQGTKLEIKR | – | 1.95 nM | 0.293 µg/mL | – | – | – | –
anti-OX40L antibody 21G07 (antibody, human IgG4 S228P, kappa, V domains shown, Chimeric; IgG4 S228P / kappa) VH: QVQLQQSGAELVKPGASVKLSCKASGYTFTNYWMQWVKQRPGQGLEWIGEIDPSDGRTNYNEKFKNKATLTVDRSSSTAYIKLSSLTSEDSAVYYCAREVSLRSMDYWGQGTSVTVSS VL: DIVLTQSPLSLPVSLGDQASISCRSSQSLVHSNGNTYLHWYLQKPGQSPKLLIYKVSNRFSGVPDRFSGSGSGTDFTLKISRVEAEDLGVYFCSQSTHVPFTFGSGTKLEIKR | 0.603 nM | 0.85 nM | 0.128 µg/mL | 0.00065 s⁻¹ | 1.08e+06 M⁻¹ s⁻¹ | – | –
bispecific antibody I3F07-TNFαi HC (bispecific antibody) heavy: not shown light: DIVLTQSPLSLPVSLGDQASISCRSSQSLVHSNGNTYLHWYLQKPGQSPKLLIYKVSNRFSGVPDRFSGSGSGTDFTLKISRVEAEDLGVYFCSQSTHVPPTFGGGSKLEIKRTVAAPSVFIFPPSDEQLKSGTASVVCLLNNFYPREAKVQWKVDNALQSGNSQESVTEQDSKDSTYSLSSTLTLSKADYEKHKVYACEVTHQGLSSPVTKSFNRGEC | – | – | – | – | – | 0.91 nM | 0.055 nM

Results, then the binder that gave them:

Kd [1] | IC50 (nM), OX40L blockade assay (luminescence of NFκB-luc2/OX40 Jurkat cells) [2] | IC50(µg/mL), OX40L blockade assay (luminescence of NFκB-luc2/OX40 Jurkat cells) [2] | koff [1] | kon [1] | IC50 (nM), OX40L blockade assay (luminescence of NFκB-luc2/OX40 Jurkat cells) [3] | IC50 (nM), TNFα blockade assay (luminescence of NFκB-RE HEK293 cells) [4] | Binder
0.472 nM | 0.59 nM | 0.117 µg/mL | – | – | – | – | bispecific antibody 02C09-TNFαi HC (bispecific antibody) heavy: not shown light: DIQMTQSPSSLSASLGDRVTITCRASQSIGRWLAWYQQKPGNAPKLLIYKATILESGVPSRFSGSGSGTEFALTISSLQPDDFSAYYCQQYNSYPYTFGQGTKLEIKRTVAAPSVFIFPPSDEQLKSGTASVVCLLNNFYPREAKVQWKVDNALQSGNSQESVTEQDSKDSTYSLSSTLTLSKADYEKHKVYACEVTHQGLSSPVTKSFNRGEC
0.282 nM | 0.2 nM | 0.03 µg/mL | 0.000357 s⁻¹ | 1.27e+06 M⁻¹ s⁻¹ | – | – | anti-OX40L antibody Hu3F07 (antibody, human IgG4 S228P, kappa, V domains shown, Humanized; IgG4 S228P / kappa) VH: QVQLVQSGAEVKKPGASVKVSCKASGFTFPDYWMHWVRQAPGQGLEWMGEIDPPNGRTNYNEKFKSRVTMTRDTSISTAYMELSRLRSDDTAVYYCARGIYYVDYWGQGTTVTVSS VL: DIVMTQSPLSLPVTLGEPASISCRSSQSLVHSNGNTYLHWYLQKPGQSPQLLIYKVSNRFSGVPDRFSGSGSGTDFTLKISRVEAEDVGVYYCSQSTHVPPTFGGGTKLEIKR
0.295 nM | 0.41 nM | 0.061 µg/mL | 0.000498 s⁻¹ | 1.69e+06 M⁻¹ s⁻¹ | – | – | anti-OX40L antibody 10H07 (antibody, human IgG4 S228P, kappa, V domains shown, Chimeric; IgG4 S228P / kappa) VH: QVYLQQSGAELVKPGASVKLSCKASGYTFTDYWMHWVKQRPGQGLEWIGEIDPGNGRTNYNEKFKNKATLSVDKSSNTAYMQFSSLTSEDSAVFYCASEGAGRGFPYWGQGTLVTVSA VL: DVVLTQTPLSLPVSLGDQASISCRSSQSLVHSNGNTYLHWYLQKPGQSPKLLIYKVSNRFSGVPDRFSGSGSGTDFTLKISRVEAEDLGVYFCSQSTHVPWTFGGGTKLEIKR
0.45 nM | 0.21 nM | 0.041 µg/mL | – | – | – | – | bispecific antibody Hu3F07-TNFαi HC (bispecific antibody) heavy: not shown light: DIVMTQSPLSLPVTLGEPASISCRSSQSLVHSNGNTYLHWYLQKPGQSPQLLIYKVSNRFSGVPDRFSGSGSGTDFTLKISRVEAEDVGVYYCSQSTHVPPTFGGGTKLEIKRTVAAPSVFIFPPSDEQLKSGTASVVCLLNNFYPREAKVQWKVDNALQSGNSQESVTEQDSKDSTYSLSSTLTLSKADYEKHKVYACEVTHQGLSSPVTKSFNRGEC
